Data set [1] deals with T1, Flag-tagged Twist-1 WT from starved HEK293 cells (not phosphorylated).
T1 sequence: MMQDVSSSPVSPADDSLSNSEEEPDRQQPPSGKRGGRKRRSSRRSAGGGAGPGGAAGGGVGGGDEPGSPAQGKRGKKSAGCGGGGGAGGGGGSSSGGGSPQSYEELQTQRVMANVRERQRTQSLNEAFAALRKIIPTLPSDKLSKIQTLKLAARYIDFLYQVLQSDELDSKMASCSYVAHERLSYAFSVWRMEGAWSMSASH

The target in data set [2] is T2, GST-Twist-1 (full-length, substrate of the in vitro kinase assay).
T2 chain: T1 sequence

The next data set addresses T3, RERQRAQSLNEA-T121A.
T3 chain: RERQRAQSLNEA

A further data set addresses T4, RERQRTQALNEA-S123A.
T4 chain: RERQRTQALNEA

In another data set the target is T5, RERQRTQSLNEA-T121/5123.
T5 chain: RERQRTQSLNEA

The next data set deals with T6, RKRRSARRSAGG-S42A.
T6 chain: RKRRSARRSAGG

In a further data set the target is T7, RKRRSSRRAAGG-S45A.
T7 chain: RKRRSSRRAAGG

The target of a further data set is T8, RKRRSSRRSAGG-S42/S45.
T8 chain: RKRRSSRRSAGG

With endogenous PKB kinase of HEK293 cells, the “Twist-1 S42 phosphorylation after serum stimulation (Western blot; shRNA against PKB)” value in data set [1] is recorded as “Twist-1 S42 phosphorylation was not induced after serum stimulation of cells with a low PKB content”.

B1: activated recombinant PKBβ (protein)
chain: KVTMNDFDYLKLLGKGTFGKVILVREKATGRYYAMKILRKEVIIAKDEVAHTVTESRVLQNTRHPFLTALKYAFQTHDRLCFVMEYANGGELFFHLSRERVFTEERARFYGAEIVSALEYLHSRDVVYRDIKLENLMLDKDGHIKITDFGLCKEGISDGATMKTFCGTPEYLAPEVLEDNDYGRAVDWWGLGVVMYEMMCGRLPFYNQDHERLFELILMEEIRFPRTLSPEAKSLLAGLLKKDPKQRLGGGPSDAKEVMEHRFFLSINWQDVVQKKLLPPFKPQVTSEVDTRYFDDEFTAQSITITPPDRYDSLGLLELDQRTHFPQFSYSASIRE
As for B1, the “in vitro kinase assays followed by mass spectrometry (MS) analysis” value in data set [2] is “confirmed that PKB phosphorylates Twist-1 in vitro on two residues S42 and S123”. Moreover, the “phosphorylation of synthetic peptide (in vitro kinase assay, 32P-ATP, scintillation counting); no such loss, by implication” value in the data set with RERQRAQSLNEA-T121A was “Only substitution of serine to alanine at positions 42 and 123 resulted in almost complete loss of phosphorylation of the corresponding peptide by PKB”; in the data set with RKRRSSRRAAGG-S45A, “Only substitution of serine to alanine at positions 42 and 123 resulted in almost complete loss of phosphorylation of the corresponding peptide by PKB”. Further, the “phosphorylation of synthetic peptide (in vitro kinase assay, 32P-ATP, scintillation counting); almost complete loss” value with RERQRTQALNEA-S123A was “Only substitution of serine to alanine at positions 42 and 123 resulted in almost complete loss of phosphorylation of the corresponding peptide by PKB”; with RKRRSARRSAGG-S42A it was “Only substitution of serine to alanine at positions 42 and 123 resulted in almost complete loss of phosphorylation of the corresponding peptide by PKB”. Besides, the “phosphorylation of synthetic peptide (in vitro kinase assay, 32P-ATP, scintillation counting); parent peptide, phosphorylated by implication” value with RERQRTQSLNEA-T121/5123 was “Only substitution of serine to alanine at positions 42 and 123 resulted in almost complete loss of phosphorylation of the corresponding peptide by PKB”; with RKRRSSRRSAGG-S42/S45 it was “Only substitution of serine to alanine at positions 42 and 123 resulted in almost complete loss of phosphorylation of the corresponding peptide by PKB”.

The values above are taken from patent US20120213801.
